According to the Human Domainome abundance scans (Beltran et al. 2025):
± gives the uncertainty stated by the source.

B1: Zinc finger MYM-type protein 3, residues 405 to 444; numbered along this chain, Q14202 (parent)
chain: DATRCSICQKTGEVLHEVSNGSVVHRLCSDSCFSKFRANK
B2: Membrane-associated guanylate kinase, WW and PDZ domain-containing protein 2, residues 296 to 340; numbered along this chain, Q86UL8 (parent)
chain: EDNEEPDPLPDNWEMAYTEKGEVYFIDHNTKTTSWLDPRLAKKAK

Variants of: B1
Test: abundance fitness (aPCA) (normalised: wild type 0, dead -1); higher = more abundant; growth selection in yeast, the domain comes from the species named
Conditions: Homo sapiens

Variant	abundance fitness
DFTRCSICQKTGEVLHEVSNGSVVHRLCSDSCFSKFRANK	0.186 ± 0.14
DDTRCSICQKTGEVLHEVSNGSVVHRLCSDSCFSKFRANK	0.305 ± 0.067
DVTRCSICQKTGEVLHEVSNGSVVHRLCSDSCFSKFRANK	-0.603 ± 0.068
DHTRCSICQKTGEVLHEVSNGSVVHRLCSDSCFSKFRANK	0.041 ± 0.11
DKTRCSICQKTGEVLHEVSNGSVVHRLCSDSCFSKFRANK	0.243 ± 0.08
DITRCSICQKTGEVLHEVSNGSVVHRLCSDSCFSKFRANK	0.327 ± 0.11
DWTRCSICQKTGEVLHEVSNGSVVHRLCSDSCFSKFRANK	-0.204 ± 0.08
DTTRCSICQKTGEVLHEVSNGSVVHRLCSDSCFSKFRANK	0.35 ± 0.062
DCTRCSICQKTGEVLHEVSNGSVVHRLCSDSCFSKFRANK	0.305 ± 0.071
DETRCSICQKTGEVLHEVSNGSVVHRLCSDSCFSKFRANK	-0.013 ± 0.063
DRTRCSICQKTGEVLHEVSNGSVVHRLCSDSCFSKFRANK	-0.089 ± 0.053
DGTRCSICQKTGEVLHEVSNGSVVHRLCSDSCFSKFRANK	-0.186 ± 0.055
DQTRCSICQKTGEVLHEVSNGSVVHRLCSDSCFSKFRANK	0.285 ± 0.069
DNTRCSICQKTGEVLHEVSNGSVVHRLCSDSCFSKFRANK	0.461 ± 0.072
DMTRCSICQKTGEVLHEVSNGSVVHRLCSDSCFSKFRANK	0.48 ± 0.064
DPTRCSICQKTGEVLHEVSNGSVVHRLCSDSCFSKFRANK	-0.225 ± 0.068
TATRCSICQKTGEVLHEVSNGSVVHRLCSDSCFSKFRANK	0.303 ± 0.12
PATRCSICQKTGEVLHEVSNGSVVHRLCSDSCFSKFRANK	-0.32 ± 0.1
RATRCSICQKTGEVLHEVSNGSVVHRLCSDSCFSKFRANK	-0.165 ± 0.065

Variant	abundance fitness
KATRCSICQKTGEVLHEVSNGSVVHRLCSDSCFSKFRANK	0.157 ± 0.079
GATRCSICQKTGEVLHEVSNGSVVHRLCSDSCFSKFRANK	0.154 ± 0.054
SATRCSICQKTGEVLHEVSNGSVVHRLCSDSCFSKFRANK	-0.054 ± 0.09
NATRCSICQKTGEVLHEVSNGSVVHRLCSDSCFSKFRANK	0.142 ± 0.13
MATRCSICQKTGEVLHEVSNGSVVHRLCSDSCFSKFRANK	0.112 ± 0.098
WATRCSICQKTGEVLHEVSNGSVVHRLCSDSCFSKFRANK	-0.504 ± 0.23
EATRCSICQKTGEVLHEVSNGSVVHRLCSDSCFSKFRANK	0.331 ± 0.076
FATRCSICQKTGEVLHEVSNGSVVHRLCSDSCFSKFRANK	-0.219 ± 0.11
AATRCSICQKTGEVLHEVSNGSVVHRLCSDSCFSKFRANK	-0.182 ± 0.089
VATRCSICQKTGEVLHEVSNGSVVHRLCSDSCFSKFRANK	0.083 ± 0.065
QATRCSICQKTGEVLHEVSNGSVVHRLCSDSCFSKFRANK	-0.251 ± 0.12
LATRCSICQKTGEVLHEVSNGSVVHRLCSDSCFSKFRANK	-0.07 ± 0.11
DAKRCSICQKTGEVLHEVSNGSVVHRLCSDSCFSKFRANK	0.272 ± 0.057
DAIRCSICQKTGEVLHEVSNGSVVHRLCSDSCFSKFRANK	-0.028 ± 0.075
DAGRCSICQKTGEVLHEVSNGSVVHRLCSDSCFSKFRANK	0.091 ± 0.054
DACRCSICQKTGEVLHEVSNGSVVHRLCSDSCFSKFRANK	-0.726 ± 0.1
DAARCSICQKTGEVLHEVSNGSVVHRLCSDSCFSKFRANK	-0.366 ± 0.057
DADRCSICQKTGEVLHEVSNGSVVHRLCSDSCFSKFRANK	-0.088 ± 0.067
DAFRCSICQKTGEVLHEVSNGSVVHRLCSDSCFSKFRANK	-0.181 ± 0.078

Variants of: B2
Test: as above
Conditions: Homo sapiens

Variant	abundance fitness
L40S	-0.022 ± 0.057
L40T	0.012 ± 0.11
L40P	0.043 ± 0.056
L40Q	0.024 ± 0.083
L40W	-0.133 ± 0.059
L40V	0.043 ± 0.045
L40G	0.076 ± 0.052
L40K	0.091 ± 0.077
L40A	0.059 ± 0.068
L40N	0.117 ± 0.1
L40E	0.034 ± 0.088
L40R	-0.002 ± 0.053
K43D	0.029 ± 0.12
K43A	0.062 ± 0.085
K43I	-0.139 ± 0.48
K43L	-0.113 ± 0.053
K43T	-0.043 ± 0.12
K43N	-0.324 ± 0.42
K43R	0.023 ± 0.063
K43W	-0.2 ± 0.075
K43F	-0.142 ± 0.093
K43V	0.023 ± 0.094

Variant	abundance fitness
K43G	0.066 ± 0.047
K42V	0.079 ± 0.093
K42Y	-0.033 ± 0.11
K42G	0.014 ± 0.046
K42E	0.035 ± 0.062
K42R	0.021 ± 0.046
K42L	0.046 ± 0.22
K42D	-0.05 ± 0.18
K42C	0.097 ± 0.077
K42W	0.089 ± 0.094
K42M	0.011 ± 0.071
K42A	0.085 ± 0.051
K42P	0.128 ± 0.066
K42N	0.032 ± 0.18
K42T	-0.148 ± 0.15
R39W	-0.607 ± 0.059
R39G	-0.46 ± 0.06
R39N	-0.289 ± 0.15
R39T	-0.366 ± 0.1
R39S	-0.395 ± 0.044
R39H	-0.419 ± 0.13
R39M	-0.599 ± 0.056

Variant	abundance fitness
R39V	-0.52 ± 0.045
R39Q	-0.497 ± 0.054
R39L	-0.63 ± 0.046
R39P	-0.633 ± 0.069
R39K	-0.411 ± 0.058
R39Y	-0.769 ± 0.15
A44E	0.07 ± 0.064
A44R	-0.076 ± 0.056
A44L	-0.111 ± 0.063
A44W	-0.118 ± 0.087
A44V	-0.009 ± 0.064
A41F	-0.113 ± 0.085
A41G	0.138 ± 0.12
A41R	-0.058 ± 0.077
A41L	-0.297 ± 0.29
K45V	0.209 ± 0.28
K45E	-0.022 ± 0.098
K45R	0.199 ± 0.23
K45G	0.081 ± 0.067
K45Q	0.1 ± 0.21
K45S	0.076 ± 0.074
K45W	-0.01 ± 0.087
